What is called EC50 (read off the curve) is the concentration at which the effect is half-maximal. A higher EC50 (read off the curve) goes with a less potent agent.

The text below walks through data of patent publication US20220242962A1 (APTEVO RESEARCH AND DEVELOPMENT, published 2022).

The target of one test is T1, Full-length Cyno OX40 (cynomolgus monkey, UniProt P43489 29-277 (human entry)).
T1 construct: on CHO-K1SV cells; also called OXF004; cynomolgus OX40
T1 chain: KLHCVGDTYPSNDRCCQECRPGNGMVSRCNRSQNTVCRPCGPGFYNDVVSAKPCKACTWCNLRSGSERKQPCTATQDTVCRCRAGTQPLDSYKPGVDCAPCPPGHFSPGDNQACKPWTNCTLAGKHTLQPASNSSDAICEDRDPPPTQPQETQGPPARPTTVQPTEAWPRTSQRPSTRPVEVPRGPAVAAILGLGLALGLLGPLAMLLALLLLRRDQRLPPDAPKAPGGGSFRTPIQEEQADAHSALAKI
The experiment in a line: flow cytometry on CHOK1SV cells transfected with cynomolgus OX40, goat anti-human Fc secondary antibody, MFI (Mean). On the procedure: Serial dilutions of ADAPTIR™ constructs were incubated with cells transfected with human or cynomolgus ECD and subsequently labelled with a fluorescently-conjugated goat-α-human Fc secondary antibody. […] (See Example 16.)
(In flow cytometry, cells or beads pass a laser one at a time.)

In test [1] the target is T2, Fc gamma receptor RIIA H167 (human, UniProt P12318 36-218).
T2 construct: soluble SPR analyte
T2 sequence (looked up): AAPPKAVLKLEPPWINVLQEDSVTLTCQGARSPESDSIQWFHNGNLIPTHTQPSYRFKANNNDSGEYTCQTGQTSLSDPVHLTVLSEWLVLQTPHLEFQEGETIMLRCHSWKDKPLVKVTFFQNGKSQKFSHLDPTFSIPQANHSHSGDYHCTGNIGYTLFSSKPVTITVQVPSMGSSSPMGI
Kind of test: SPR, Fc captured, receptor as analyte. As for the experimental part:
Fc mutations to be potentially integrated into an ADAPTIR™ bispecific construct were analyzed for binding to the common Fc receptors (human and cyno) and C1Q, which is a component of the complement activation system. SPR experiments were conducted at 25° C. in HBS-EP+ buffer on a Biacore T200 system.
For these experiments, all four flow cells of a CM5 sensor chip were immobilized with goat F(ab′)2 anti-human Fc (Jackson ImmunoResearch) to a response level of ˜4000 RU. Fc variants and wild type Fc were diluted to 100 nM in HBS-EP+ and captured on the surface of the chip for 120 seconds at a flow rate of 10 μL/min. Fcγ receptors (human and cyno, all purchased from R&D Systems) and complement (C1Q, purchased from Quidel Corporation and Complement Technology, Inc) were diluted in HBS-EP+ and then flowed as analytes at 30 μL/min for 120 seconds followed by a 120 seconds dissociation. Regeneration was achieved by flowing 10 mM glycine pH 1.7 at 30 μL/min for 30 seconds followed by a 60 seconds stabilization. Flow cell 1 was always left as a blank (no captured protein) for purposes of background signal subtraction. Blank-subtracted sensorgrams for each captured Fc variant were inspected for the presence of binding to any of the Fcγ receptor proteins or complement. There are polymorphisms in the Human Fc receptors IIA and RIIIA, so both sequences were tested for binding.

Test [2] deals with T3, Fc gamma receptor RIIA H131 on CHO-K1SV cells (human, UniProt P12318 34-317).
T3 construct: whole, on cells
T3 sequence (looked up): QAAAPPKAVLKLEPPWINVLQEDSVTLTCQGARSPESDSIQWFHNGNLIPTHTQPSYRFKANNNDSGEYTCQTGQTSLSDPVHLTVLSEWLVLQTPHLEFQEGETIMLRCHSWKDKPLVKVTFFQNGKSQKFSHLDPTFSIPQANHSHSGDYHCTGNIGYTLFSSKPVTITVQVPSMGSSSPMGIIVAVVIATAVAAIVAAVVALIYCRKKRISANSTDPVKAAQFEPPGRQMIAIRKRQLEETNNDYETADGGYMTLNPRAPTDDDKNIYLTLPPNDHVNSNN
Kind of test: flow cytometry, CHO-K1SV transfectants. As for the experimental part: (§1) CHO-K1SV cells stably transfected with a series of FcγR receptors were incubated with each of the […] listed in Table 23. A typical experiment labeled approximately 100,000 cells per well, in 96-well plates, with a range of binding molecule concentrations of 1 to 1000 nM, in 100 μl of PBS buffer with 0.2% BSA and 2 mM EDTA, for 30 minutes on ice, followed by washes and incubation with PE-labeled minimum cross species reactive secondary antibody, goat anti-human IgG Fcγ, F(ab′)2 ([…]) for 30 minutes to 1 hour on ice. Signal from bound molecules was detected using a LSR-II™ flow cytometer (BD Biosciences) and analyzed by FlowJo flow cytometry analysis software. Mean fluorescence intensity (MFI) of bound molecules on cells was determined after exclusion of doublets.

Test [3] addresses T4, Fc gamma receptor RIIA R131 on CHO-K1SV cells (human, UniProt P12318 34-317).
T4 construct: whole, on cells
T4 sequence (looked up): T3 sequence (looked up) with H134R
Kind of test: flow cytometry, CHO-K1SV transfectants. As for the experimental part:
as §1

The target in test [4] is T5, Fc gamma receptor RIIIA F158 on CHO-K1SV cells (human, UniProt P08637 17-254).
T5 construct: whole, on cells
T5 sequence (P08637 17-254): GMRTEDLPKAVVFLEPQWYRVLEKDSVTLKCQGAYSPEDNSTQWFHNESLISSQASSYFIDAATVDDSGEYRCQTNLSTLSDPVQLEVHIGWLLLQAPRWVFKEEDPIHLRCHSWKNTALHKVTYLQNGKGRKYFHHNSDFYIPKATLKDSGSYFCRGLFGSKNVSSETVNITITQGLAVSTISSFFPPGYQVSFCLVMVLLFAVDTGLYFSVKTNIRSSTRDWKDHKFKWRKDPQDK
The experiment in a line: flow cytometry, CHO-K1SV transfectants. On the procedure: as §1

The target of test [5] is T6, Fc gamma receptor RIIIB on CHO-K1SV cells (human, UniProt O75015 17-200).
T6 construct: whole, on cells
T6 sequence (O75015 17-200): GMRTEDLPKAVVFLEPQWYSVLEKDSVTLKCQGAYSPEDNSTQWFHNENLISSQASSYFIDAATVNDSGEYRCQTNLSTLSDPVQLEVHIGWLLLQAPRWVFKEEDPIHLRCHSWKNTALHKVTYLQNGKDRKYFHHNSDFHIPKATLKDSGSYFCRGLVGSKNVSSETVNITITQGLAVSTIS
Kind of test: flow cytometry, CHO-K1SV transfectants. As for the experimental part:
as §1

Test [6] has as its target T7, Fc gamma receptor RIIB/C on CHO-K1SV cells (human, UniProt P31994 43-310).
T7 construct: whole, on cells
T7 sequence (looked up): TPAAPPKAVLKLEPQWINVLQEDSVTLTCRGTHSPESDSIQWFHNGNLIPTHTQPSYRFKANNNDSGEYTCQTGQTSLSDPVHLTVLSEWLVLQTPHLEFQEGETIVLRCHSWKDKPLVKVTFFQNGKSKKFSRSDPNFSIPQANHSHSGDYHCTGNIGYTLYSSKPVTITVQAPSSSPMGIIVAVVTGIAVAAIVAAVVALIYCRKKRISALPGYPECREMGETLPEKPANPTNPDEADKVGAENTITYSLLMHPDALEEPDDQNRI
The experiment in a line: flow cytometry, CHO-K1SV transfectants. On the procedure: as §1

Numbering of substitutions follows the chain as printed. Names may count otherwise.

B1: FXX01066 (bispecific antibody)
chain: EVQLVQSGAEVKKPGASVKVSCKASGYTFTSYWMNWVRQAPGQGLEWMGNIYPSGGSTNYAQKFQGRVTMTVDTSTSTVYMELSSLRSEDTAVYYCASFSDGYYAYAMDYWGQGTLVTVSSGGGGSGGGGSGGGGSGGGGSEIVMTQSPATLSLSPGERATLSCRASQSVSSYLNWYQQKPGQAPRLLIYYASRRHTGIPARFSGSGSGTDFTLTISSLQPEDFAVYYCQQGYNLPYTFGQGTKVEIKEPKSSDKTHTCPPCPAPPAAAPSVFLFPPKPKDTLMISRTPEVTCVVVDVSHEDPEVKFNWYVDGVEVHNAKTKPREEQYNSTYRVVSVLTVLHQDWLNGKEYKCAVSNKALPAPIEKTISKAKGQPREPQVYTLPPSRDELTKNQVSLTCLVKGFYPSDIAVEWESNGQPENNYKTTPPVLDSDGSFFLYSKLTVDKSRWQQGNVFSCSVMHEALHNHYTQKSLSLSPGGGGSPSSYVLTQPPSVSVAPGQTARITCGGNNIGSKSVNWFQQKPGQAPVLVVYDDSGRPSGIPERFSGSTSGNTATLTISRVEAGDEADYYCQVWDSSSDHVVFGGGTKLTVLGGGGSGGGGSGGGGSGGGGSQVQLVESGGGVVQPGRSLRLSCAASGFTLSYYGMHWVRQAPGKGLEWVAAISHDGSDKYYADSVKGRFTISRDNSKNTLYLQMNSLRAEDTAVYYCSNDQFDPWGQGTLVTVSSR
notes: ADAPTIR scFv-Fc-scFv, anti-4-1BB (VH-VL) N-terminal, anti-OX40 C-terminal, PAA (del) Fc; also called FX01066
Turning to B1, the “EC50 (read off the curve)” value with Full-length Cyno OX40 was around 2 nM.

B2: TSC 1005 (other)
chain: EPKSSDKTHTCPPCPAPPVAAPSVFLFPPKPKDTLMISRTPEVTCVVVDVSHEDPEVKFNWYVDGVEVHNAKTKPREEQYNSTYRVVSVLTVLHQDWLNGKEYKCAVSNKALPAPIEKTISKAKGQPREPQVYTLPPSRDELTKNQVSLTCLVKGFYPSDIAVEWESNGQPENNYKTTPPVLDSDGSFFLYSKLTVDKSRWQQGNVFSCSVMHEALHNHYTQKSLSLSPG
notes: IgG1 Fc with E233P, L234V, L235A, deletion of G236, G237A, K322A (EU); also called PVAdel TSC01005
Turning to B2, the binding result in test [1] is “no binding”; in test [2] it was “no binding (tested: 1 to 1000 nM)”; in test [3], “no binding (tested: 1 to 1000 nM)”; in test [4], “no binding (tested: 1 to 1000 nM)”; in test [5], “no binding (tested: 1 to 1000 nM)”; in test [6] it was “no binding (tested: 1 to 1000 nM)”.
